Results from paper PMC3949604 (Biochemical pharmacology, 2014).

B1: thioredoxin fusion of D1 (human AhR aa 84-295) (domain or fragment, UniProt P35869 84-295, looked up)
chain: DVALKSSPTERNGGQDNCRAANFREGLNLQEGEFLLQALNGFVLVVTTDALVFYASSTIQDYLGFQQSDVIHQSVYELIHTEDRAEFQRQLHWALNPSQCTESGQGIEEATGLPQTVVCYNPDQIPPENSPLMERCFICRLRCLLDNSSGFLAMNFQGKLKYLHGQKKKGKDGSILPPQLALFAIATPLQPPSILEIRTKNFIFRTKHKLDF
B2: thioredoxin fusion of CΔ553 (human AhR aa 1-295) (domain or fragment, UniProt P35869 1-295, looked up)
chain: MNSSSANITYASRKRRKPVQKTVKPIPAEGIKSNPSKRHRDRLNTELDRLASLLPFPQDVINKLDKLSVLRLSVSYLRAKSFFDVALKSSPTERNGGQDNCRAANFREGLNLQEGEFLLQALNGFVLVVTTDALVFYASSTIQDYLGFQQSDVIHQSVYELIHTEDRAEFQRQLHWALNPSQCTESGQGIEEATGLPQTVVCYNPDQIPPENSPLMERCFICRLRCLLDNSSGFLAMNFQGKLKYLHGQKKKGKDGSILPPQLALFAIATPLQPPSILEIRTKNFIFRTKHKLDF
B3: thioredoxin fusion of D3 (human AhR aa 191-295) (domain or fragment, UniProt P35869 191-295, looked up)
chain: EEATGLPQTVVCYNPDQIPPENSPLMERCFICRLRCLLDNSSGFLAMNFQGKLKYLHGQKKKGKDGSILPPQLALFAIATPLQPPSILEIRTKNFIFRTKHKLDF
B4: thioredoxin fusion of D2 (human AhR aa 84-192) (domain or fragment)
chain: not shown

Biological target: baculovirus expressed human Arnt (aryl hydrocarbon receptor nuclear translocator) (human, UniProt P27540 1-789)
Experiment: co-IP

baculovirus expressed human Arnt (aryl hydrocarbon receptor nuclear translocator), sequence (P27540 whole entry): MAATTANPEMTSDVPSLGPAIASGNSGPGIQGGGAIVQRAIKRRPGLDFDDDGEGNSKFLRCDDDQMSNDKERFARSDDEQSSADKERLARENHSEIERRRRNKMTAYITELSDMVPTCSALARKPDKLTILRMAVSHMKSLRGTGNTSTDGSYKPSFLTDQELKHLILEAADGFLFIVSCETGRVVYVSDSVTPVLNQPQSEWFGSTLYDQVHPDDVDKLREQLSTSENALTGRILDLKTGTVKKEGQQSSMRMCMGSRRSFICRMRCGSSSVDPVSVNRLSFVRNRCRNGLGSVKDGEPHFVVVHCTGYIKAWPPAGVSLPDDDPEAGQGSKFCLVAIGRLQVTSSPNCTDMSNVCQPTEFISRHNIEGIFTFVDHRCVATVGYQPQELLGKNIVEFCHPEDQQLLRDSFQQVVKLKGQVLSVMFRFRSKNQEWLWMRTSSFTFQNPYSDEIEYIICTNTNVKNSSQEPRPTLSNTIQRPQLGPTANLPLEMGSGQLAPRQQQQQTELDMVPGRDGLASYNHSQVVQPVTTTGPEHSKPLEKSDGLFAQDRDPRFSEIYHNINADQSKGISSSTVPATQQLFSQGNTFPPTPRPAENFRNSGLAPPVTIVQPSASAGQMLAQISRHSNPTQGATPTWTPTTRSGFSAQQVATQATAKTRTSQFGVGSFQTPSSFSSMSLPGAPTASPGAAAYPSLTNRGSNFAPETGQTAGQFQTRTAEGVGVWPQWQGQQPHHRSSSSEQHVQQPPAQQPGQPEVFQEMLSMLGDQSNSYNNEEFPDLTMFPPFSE

Binder | percent of input co-immunoprecipitated [% input]
B1 | ~10
B2 | > 10
B3 | ~10
B4 | ~10
